The record followed here is PMC9514091, “Discovery of the first PD-1 ligand encoded by a pathogen” (Frontiers in Immunology, 2022).

The term Kd denotes the concentration at which binding is half-saturated. High values mean weaker binding, low ones tighter binding.

The assay deals with T1, host PD-1-Fc fusion protein ( ('host'; the dolphin PD-1 of …).
T1 chain: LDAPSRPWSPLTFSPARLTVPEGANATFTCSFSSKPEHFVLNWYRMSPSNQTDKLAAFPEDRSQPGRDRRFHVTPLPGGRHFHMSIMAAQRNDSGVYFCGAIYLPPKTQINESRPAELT
As to the kind of experiment: SPR; Biacore T200, 25°C; PD-1-Fc amine-coupled to a CM4 chip (acetate buffer pH 6.5); De2-Fc or PD-L1-Fc as analytes at 0-400 nM in PBS with 0.05% Tween, 30 µL/min; 1:1 Langmuir model. Conditions: both partners purified. A general note: Surface plasmon resonance follows binding to a sensor surface in real time, without labels.

B1: host PD-L1-Fc fusion protein (Fc fusion)
chain: FTITVPKDLYVVEYGSNVTLECRFPVDKQLNLLALVVYWEMEDKKIIQFVNGEEDLNVQHSSYNQRALLLKNQLPLGKAALQITDVKLQDAGIYCCLISYGGADYKRITLKVNASYRKINQTISVDPVTSEHELMCQAEGYPEAEVIWTSSDHRVLSGKTTITSSKREEKLFNVTSTLRINTTANEIFYCIFRRLGHEENSTAELV
For B1, the Kd amounted to 6.2 nM.
